In patent US20100169988A1, “MEANS AND METHODS FOR ISOLATING AND DETERMINING NOVEL TARGETS FOR THE TREATMENT OF NEURODEGENERATIVE, NEUROLOGICAL OR NEUROPSYCHIATRIC DISORDERS AND COMPOSITIONS COMPRISING THE SAME” (priority 2006, published 2010):

Experiments:
APP-TAP-AICD (human) [1] = target: APP-TAP-AICD (human) (UniProt P05067); assay: streptavidin purification of APP-TAP-AICD from brain homogenate; iTRAQ 116/114, transgenic mouse 75 vs control mouse 72; MALDI-TOF/TOF
APP-TAP-AICD (human) [2] = target: APP-TAP-AICD (human) (UniProt P05067); assay: streptavidin purification of APP-TAP-AICD from brain homogenate; LTQ-FT semiquantitative method, transgenic mouse 75 vs control mouse 72

Row | probability that this protein is enriched (APP-TAP-AICD (human) [2]) | Substance | iTRAQ ratio (APP-TAP-AICD (human) [1])
1 |  | Heat shock protein HSP 90-alpha (HSP 86) (Tumor specific transplantation 86 kDa antigen) (from UniProt P07901 2-733) | 4.22
2 | 0.88 | Lrrk1 protein (Fragment), Q3UHC2 1-2014 | 
3 |  | Syntaxin-1B2 (from UniProt P61264 1-288) | 4.57
4 | 0.87 | fructose-bisphosphate aldolase A homolog (Adult male testis cDNA, RIKEN clone 4933425L11 product) (enzyme) | 

Row | Substance | probability that this protein is enriched (APP-TAP-AICD (human) [2]) | iTRAQ ratio (APP-TAP-AICD (human) [1])
5 | similar to heat shock protein 1, alpha isoform 1 | 1 | 
